Laboratory results: patent US20240239901A1

Tests used:
[1] = target: human purified airway mucins (purified from induced sputum of five asthmatic donors, pooled); test: plate binding assay: purified mucins coated, FLAG-ITLN-1 with heparin (150 pg/mL as printed) in the binding buffer
[2] = target: human purified airway mucins (purified from induced sputum of five asthmatic donors, pooled); test: plate binding assay: purified mucins coated, FLAG-ITLN-1 with dextran sulfate (150 pg/mL as printed) in the binding buffer

FLAG-tagged recombinant ITLN-1 (Sigma, SRP8047) (from UniProt Q8WWA0 19-298) (ligand)
percent decrease of binding in the presence of heparin [1]: 51.9%
percent decrease of binding in the presence of dextran sulfate [2]: 74%
